We go through five molecules from patent publication US20230137139A1, “BIOSYNTHESIS OF CANNABINOIDS AND C[…]” (priority 2020, published 2023).

Test [1] concerns CBCA, THCA, and CBDA production. Nature of the test: In vivo TS activity assay, Example 2 protein engineering of A. niger CBCAS, cultures fed olivetolic acid. The test is classed as cell-based, S. cerevisiae. The settings on record: for average CBCA titer compared with the A. niger positive control / Mean CBCA / Mean CBDA / Mean THCA: secondary screen; for Mean CBCA / Mean CBDA / Mean THCA: olivetolic acid (Table 8); for % CBCA / % CBDA / % THCA: share of terminal cannabinoid product profile. The procedure:
(§1) An assay to detect TS activity was conducted as follows: each thawed glycerol stock of candidate CBCAS transformants was stamped into a well of YEP+4% dextrose media. Samples were incubated at 30° C. in a shaking incubator for 2 days. A portion of each of the resulting cultures was stamped into a well of YEP+4% galactose+1 mM olivetolic acid (FIG. 1 Structure 6a). Samples were incubated at 20° C. and shaken in a shaking incubator for 4 days. Every 24 hours during those 4 days, 2% galactose and 1 mM olivetolic acid were spiked into the cultures. Sodium citrate buffer adjusted to pH 5.5 was added to each well at a final concentration of 100 mM. Samples were incubated at 20° C. and shaken in a shaking incubator for 2 days. A portion of each of the resulting production cultures was stamped into a well of phosphate buffered saline (PBS). Optical measurements were taken on a plate reader, with absorbance measured at 600 nm and fluorescence at 528 nm with 485 nm excitation. Samples were incubated at 30° C. in a shaking incubator for 2 days. 100% methanol was stamped into the production cultures in half-height deepwell plates. Plates were heat sealed and frozen. Samples were then thawed for 30 min and spun down at 4° C. A portion of the supernatant was stamped into half-area 96 well plates. CBCA, THCA, and CBDA production in the samples was quantified via liquid chromatography-mass spectrometry (LC-MS).
(§2) To determine whether engineering of the A. niger CBCAS identified in Example 1 (corresponding to SEQ ID NO: 29 (with signal peptides); SEQ ID NO: 27 (without signal peptides and including an N-terminal methionine (UniProt accession No. A0A254UC34)); or SEQ ID NO: 25 (without signal peptides and without the N-terminal methionine)), could alter CBCAS substrate specificity, product specificity and/or amounts of products produced, point mutations were generated in A. niger CBCAS and the mutant versions of the protein were expressed in S. cerevisiae. A library containing 1047 A. niger CBCAS mutants was generated and screened. As in Example 1, each CBCAS mutant in the library, as well as the enzymes expressed by positive control strains, included an N-terminal MFalpha2 signal peptide (SEQ ID NO: 16) (with a methionine residue added at the N-terminus of the MFalpha2 signal peptide) and a C-terminal HDEL signal peptide (SEQ ID NO: 17).
Production of compounds of Formulae (9), (10), and/or (11), including compounds of Formulae (9a), (10a), and/or (11a) by strains expressing the mutated versions of A. niger CBCAS was quantified and compared to the production of the same compounds by a strain expressing wild-type A. niger CBCAS, a strain expressing a C. sativa THCAS, and a strain expressing a C. sativa CBDAS. The strains were screened using the same assay described in Example 1. Production of CBCA, THCA, and/or CBDA in the samples was quantified via LC-MS.
(§3) Of the original 1047 library members, 55 strains were elevated to a secondary screen to verify CBCA production. The experimental protocol for the secondary screen was identical to the primary screen, except that additional biological replicates were included per strain, and replicate production cultures for each strain were separately fed 1 mM boluses of olivetolic acid or 1 mM boluses of divaric acid. All strains were screened in quadruplicate.

Test [2] deals with CBCVA, THCVA, and CBDVA production. Put plainly: In vivo TS activity assay, Example 2 protein engineering of A. niger CBCAS, cultures fed divaric acid. The test is classed as cell-based, S. cerevisiae. The conditions noted are these: for Mean CBCVA / Mean CBDVA / Mean THCVA: S. cerevisiae strains expressing A. niger CBCAS mutants; for Mean CBCVA / Mean CBDVA / Mean THCVA / average CBCVA titer compared with the A. niger positive control: secondary screen; for Mean CBCVA / Mean CBDVA / Mean THCVA / % CBCVA / % CBDVA / % THCVA: fed divaric acid; for % CBCVA / % CBDVA / % THCVA: share of terminal cannabinoid product profile. How it is done:
as §1, §2, §3

B1: t865771 (protein)
chain: MGNTTSIAGRDCLISALGGNSALAVFPNELLWTADVHEYNLNLPVTPAAITYPETAAQIAGVVKCASDYDYKVQARSGGHSFGNYGLGGADGAVVVDMKHFTQFSMDDETYEAVIGPGTTLNDVDIELYNNGKRAMAHGVCPTIKTGGHFTIGGLGPTARQWGLALDHVEEVEVVLANSSIVRASNTQNQDVFFAVKGAAANFGIVTEFKVRTEPAPGLAVQYSYTFNLGSTAEKAQFVKDWQSFISAKNLTRQFYNNMVIFDGDIILEGLFFGSKEQYDALGLEDHFAPKNPGNILVLTDWLGMVGHALEDTILKLVGNTPTWFYAKSLGFRQDTLIPSAGIDEFFEYIANHTAGTPAWFVTLSLEGGAINDVAEDATAYAHRDVLFWVQLFMVNPVGPISDTTYEFTNGLYDVLARAVPESVGHAYLGCPDPRMEDAQQKYWRTNLPRLQELKEELDPKNTFHHPQGVMPA
modifications: expressed in S. cerevisiae strain
As to B1, in test [1], the “average CBCA titer compared with the A. niger positive control” value was “higher”, the “Mean CBCA” value was found to be 40971.16 µg/L, the “Mean CBDA” value worked out at 8309.68 µg/L and the “Mean THCA” value is 2638.90 µg/L. In test [1], the “% CBCA” value is listed as 78.91%, the “% CBDA” value came out at 16.00% and the “% THCA” value was determined as 5.08%. In test [2], the “Mean CBCVA” value stood at 1592.02 µg/L, the “Mean CBDVA” value was 0.00 µg/L, the “Mean THCVA” value is 968.82 µg/L and the “% CBCVA” value is given as 62.17%. Moreover, in test [2], the “% CBDVA” value was determined as 0.00% and the “% THCVA” value amounted to 37.83%.

B2: t865739 (protein)
chain: MGNTTSIAGRDCLISALGGNSALAVFPNELLWTADVHEYNLNLPVTPAAITYPETAAQIAGVVKCASDYDYKVQARSGGHSFGNYGLGGADGAVVVDMKHFTQFSMDDETYEAVIGPGTTLNDVDIELYNNGKRAMAHGVCPTIKTGGHFTIGGLGPTARQWGLALDHVEEVEVVLANSSIVRASNTQNQDVFFAVKGAAANFGIVTEFKVRTEPAPGLAVQYSYTFNLGSTAEKAQFVKDWQSFISAKNLTRQFYNNMVIFDGDIILEGLFFGSKEQYDALGLEDHFAPKNPGNILVLTDWLGMVGHALEDTILKLVGNTPTWFYAKSLGFRQDTLIPSAGIDEFFEYIANHTAGTPAWFVTLSLEGGAINDVAEDATAYAHRDVLFWVQLFMVNPVGPISDTTYEFTDGLYDVLARAVPESVGHAYLGCPDPRMEDAQQKYWRTNLPKLQELKEELDPKNTFHHPQGVMPA
As for B2, in test [1], the “average CBCA titer compared with the A. niger positive control” value was “higher”, the “Mean CBCA” value is 40214.21 µg/L, the “Mean CBDA” value stood at 10767.85 µg/L and the “Mean THCA” value is 2538.89 µg/L. Also, in test [1], the “% CBCA” value amounted to 75.14%, the “% CBDA” value is on record as 20.12% and the “% THCA” value amounted to 4.74%. For the same molecule, in test [2], the “Mean CBCVA” value was determined as 4265.42 µg/L, the “Mean CBDVA” value amounted to 0.00 µg/L, the “Mean THCVA” value came to 2039.44 µg/L and the “average CBCVA titer compared with the A. niger positive control” value is listed as “higher”. Further, in test [2], the “% CBCVA” value was determined as 67.65%, the “% CBDVA” value is 0.00% and the “% THCVA” value was determined as 32.35%.

B3: t865750 (protein)
chain: MGNTTSIAGRDCLISALGGNSALAVFPNELLWTADVHEYNLNLPVTPAAITYPETAAQIAGVVKCASDYDYKVQARSGGHSFGNYGLGGADGAVVVDMKHFTQFSMDDETYEAVIGPGTTLNDVDIELYNNGKRAMAHGVCPTIKTGGHFTIGGLGPTARQWGLALDHVEEVEVVLANSTIVRASNTQNQDVFFAVKGAAANFGIVTEFKVRTEPAPGLAVQYSYTFNLGSTAEKAQFVKDWQSFISAKNLTRQFYNNMVIFDGDIILEGLFFGSKEQYDALGLEDHFAPKNPGNILVLTDWLGMVGHALEDTILKLVGNTPTWFYAKSLGFRQDTLIPSAGIDEFFEYIANHTAGTPAWFVTLSLEGGAINDVAEDATAYAHRDVLFWVQLFMVNPVGPISDTTYEFTDGLYDVLARAVPESVGHAYLGCPDPRMEDAQQKYWRTNLPRLQELKEELDPKNTFHHPQGVMPA
modifications: expressed in S. cerevisiae strain
Regarding B3, in test [1], the “average CBCA titer compared with the A. niger positive control” value was “higher”, the “Mean CBCA” value was determined as 39940.41 µg/L, the “Mean CBDA” value was determined as 10807.90 µg/L and the “Mean THCA” value is 2475.89 µg/L. For the same molecule, in test [1], the “% CBCA” value was found to be 75.04%, the “% CBDA” value came out at 20.31% and the “% THCA” value came to 4.65%. In test [2], the “Mean CBCVA” value is 5745.78 µg/L, the “Mean CBDVA” value was found to be 0.00 µg/L, the “Mean THCVA” value stood at 2770.13 µg/L and the “average CBCVA titer compared with the A. niger positive control” value is “higher”. Moreover, in test [2], the “% CBCVA” value was found to be 67.47%, the “% CBDVA” value came to 0.00% and the “% THCVA” value was found to be 32.53%.

B4: t878464 (protein)
chain: MGNTTSIAGRDCLISALGGNSALAVFPNELLWTADVHEYNLNLPVTPAAITYPETAAQIAGVVKCASDYDYKVQARSGGHSFGNYGLGGADGAVVVDMKHFTQFSMDDETYEAVIGPGTTLNDVDIELYNNGKRAMAHGVCPTIKTGGHFTIGGLGPTARQWGLALDHVEEVEVVLANSSIVTASNTQNQDVFFAVKGAAANFGIVTEFKVRTEPAPGLAVQYSYTFNLGSTAEKAQFVKDWQSFISAKNLTRQFYNNMVIFDGDIILEGLFFGSKEQYDALGLEDHFAPKNPGNILVLTDWLGMVGHALEDTILKLVGNTPTWFYAKSLGFRQDTLIPSAGIDEFFEYIANHTAGTPAWFVTLSLEGGAINDVAEDATAYAHRDVLFWVQLFMVNPVGPISDTTYEFTDGLYDVLARAVPESVGHAYLGCPDPRMEDAQQKYWRTNLPRLQELKEELDPKNTFHHPQGVMPA
modifications: expressed in S. cerevisiae strain
For the molecule B4, in test [1], the “average CBCA titer compared with the A. niger positive control” value was “higher”, the “Mean CBCA” value came to 38911.71 µg/L, the “Mean CBDA” value came to 9203.22 µg/L and the “Mean THCA” value stood at 2062.10 µg/L. Moreover, in test [1], the “% CBCA” value is given as 77.55%, the “% CBDA” value was 18.34% and the “% THCA” value came out at 4.11%. For the same molecule, in test [2], the “Mean CBCVA” value stood at 5383.16 µg/L, the “Mean CBDVA” value was determined as 0.00 µg/L, the “Mean THCVA” value came to 2710.86 µg/L and the “average CBCVA titer compared with the A. niger positive control” value is “higher”. In test [2], the “% CBCVA” value is 66.51%, the “% CBDVA” value is 0.00% and the “% THCVA” value is reported as 33.49%.

B5: t865689 (protein)
chain: MGNTTSIAGRDCLISALGGNSALAVFPNELLWTADVHEYNLNLPVTPAAITYPETAAQIAGVVKCASDYDYKVQARSGGHSFGNYGLGGADGAVVVDMKHFTQFSMDDETYEAVIGPGTTLGDVDRELYNNGKRAMAHGVCPTIKTGGHFTIGGLGPTARQWGLALDHVEEVEVVLANSSIVRASNTQNQDVFFAVKGAAANFGIVTEFKVRTEPAPGLAVQYSYTFNLGSTAEKAQFVKDWQSFISAKNLTRQFYNNMVIFDGDIILEGLFFGSKEQYDALGLEDHFAPKNPGNILVLTDWLGMVGHALEDTILKLVGNTPTWFYAKSLGFRQDTLIPSAGIDEFFEYIANHTAGTPAWFVTLSLEGGAINDVAEDATAYAHRDVLFWVQLFMVNPVGPISDTTYEFTDGLYDVLARAVPESVGHAYLGCPDPRMEDAQQKYWRTNLPRLQELKEELDPKNTFHHPQGVMPA
As to B5, in test [1], the “average CBCA titer compared with the A. niger positive control” value is listed as “higher”, the “Mean CBCA” value worked out at 38241.90 µg/L, the “Mean CBDA” value worked out at 10157.65 µg/L and the “Mean THCA” value came to 2452.92 µg/L. Moreover, in test [1], the “% CBCA” value turned out to be 75.20%, the “% CBDA” value is recorded as 19.97% and the “% THCA” value came out at 4.82%. In test [2], the “Mean CBCVA” value was 6333.32 µg/L, the “Mean CBDVA” value amounted to 0.00 µg/L, the “Mean THCVA” value is 2791.18 µg/L and the “average CBCVA titer compared with the A. niger positive control” value is on record as “higher”. For the same molecule, in test [2], the “% CBCVA” value is on record as 69.41%, the “% CBDVA” value was determined as 0.00% and the “% THCVA” value is given as 30.59%.
